Bridge positions count the residues as written; N and C are the ends. Square brackets hold non-standard residues; d marks the D form. Ends that are not written are not given here. * marks the point of attachment. NMe‑Bn(CF3)2 = C-terminal N-methyl bis(trifluoromethyl)benzyl amide; NMeBn(CF3)2 = C-terminal N-methyl bis(trifluoromethyl)benzyl amide; NH(3,5-(CF3)2-benzyl) = FC(F)(F)c1cc(CN*)cc(C(F)(F)F)c1; OBzl(3,5-(CF3)2) = FC(F)(F)c1cc(CO*)cc(C(F)(F)F)c1; OBn(OMe)2 = C-terminal OBn(OMe)2 ester; OBn(CF3)2 = C-terminal Bn(CF3)2 ester; NMe(benzyl) = CN(Cc1ccccc1)*; Aib = CC(C)(N)C(=O)O; NHBn = c1ccc(CN*)cc1; OBn = c1ccc(CO*)cc1
How the values were obtained:
rat NK1 receptor = molecular target: T1, rat NK1 receptor (rat, UniProt P14600 1-407); assay: radioligand competition vs [3H]substance P, membranes of rNK1 CHO cells
T1 construct: whole, on cells; Used as membrane preparations of transfected CHO cells; also called rNK1; rat neurokinin-1 receptor
T1 sequence (P14600 whole entry): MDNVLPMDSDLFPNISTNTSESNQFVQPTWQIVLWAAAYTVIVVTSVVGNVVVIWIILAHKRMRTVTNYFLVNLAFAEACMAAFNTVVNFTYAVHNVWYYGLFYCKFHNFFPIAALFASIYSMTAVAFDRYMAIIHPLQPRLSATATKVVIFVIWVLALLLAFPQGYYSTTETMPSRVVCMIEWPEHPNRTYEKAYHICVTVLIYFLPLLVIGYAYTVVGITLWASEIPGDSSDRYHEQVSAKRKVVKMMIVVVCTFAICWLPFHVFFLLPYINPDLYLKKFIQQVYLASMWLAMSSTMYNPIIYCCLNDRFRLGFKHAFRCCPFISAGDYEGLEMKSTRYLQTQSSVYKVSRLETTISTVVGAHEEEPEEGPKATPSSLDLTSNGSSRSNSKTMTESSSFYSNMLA

[1] = molecular target: µ opioid receptor of the guinea pig isolated ileum (guinea pig, UniProt P97266 1-98); assay: cell-based or functional assay
µ opioid receptor of the guinea pig isolated ileum, sequence (P97266 whole entry): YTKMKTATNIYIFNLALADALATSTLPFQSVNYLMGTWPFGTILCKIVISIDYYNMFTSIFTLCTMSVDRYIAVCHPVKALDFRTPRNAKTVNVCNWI

guinea pig NK1 receptor = guinea pig NK1 receptor (guinea pig, UniProt P30547 1-407); assay: cell-based or functional assay
guinea pig NK1 receptor, sequence (P30547 whole entry): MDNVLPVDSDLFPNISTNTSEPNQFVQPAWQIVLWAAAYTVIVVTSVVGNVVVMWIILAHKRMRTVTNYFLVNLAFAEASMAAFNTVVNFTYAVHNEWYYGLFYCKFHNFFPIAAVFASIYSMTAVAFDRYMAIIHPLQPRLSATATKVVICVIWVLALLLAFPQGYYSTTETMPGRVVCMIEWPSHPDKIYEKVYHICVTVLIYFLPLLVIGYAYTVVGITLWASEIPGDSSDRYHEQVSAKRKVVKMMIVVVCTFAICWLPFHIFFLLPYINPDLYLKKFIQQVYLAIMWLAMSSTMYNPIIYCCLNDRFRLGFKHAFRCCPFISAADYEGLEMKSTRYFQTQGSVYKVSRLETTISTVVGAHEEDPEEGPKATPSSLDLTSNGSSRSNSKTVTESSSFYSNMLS

human δ opioid receptor [2] = molecular target: T2, human δ opioid receptor (human, UniProt P41143 1-372); assay: cell-based or functional assay
T2 sequence (P41143 whole entry, stated change not applied): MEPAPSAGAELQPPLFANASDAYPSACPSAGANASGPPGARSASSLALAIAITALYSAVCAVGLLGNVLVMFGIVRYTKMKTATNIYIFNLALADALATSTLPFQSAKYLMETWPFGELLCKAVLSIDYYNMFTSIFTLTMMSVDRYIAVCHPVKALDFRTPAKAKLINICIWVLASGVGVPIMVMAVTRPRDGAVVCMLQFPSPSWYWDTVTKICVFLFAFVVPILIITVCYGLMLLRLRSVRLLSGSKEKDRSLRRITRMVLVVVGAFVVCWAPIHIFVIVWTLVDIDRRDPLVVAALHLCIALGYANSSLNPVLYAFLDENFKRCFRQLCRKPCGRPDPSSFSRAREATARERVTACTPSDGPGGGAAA

human δ opioid receptor [3] = molecular target: T2, human δ opioid receptor; assay: radioligand competition vs [3H]DPDPE, membranes of hDOR cells
human NK1 receptor = molecular target: T3, human NK1 receptor (human, UniProt P25103 1-407); assay: radioligand competition vs [3H]substance P, membranes of hNK1 CHO cells
T3 construct: whole, on cells; Used as membrane preparations of transfected CHO cells; also called hNK1; human neurokinin-1 receptor
T3 sequence (P25103 whole entry): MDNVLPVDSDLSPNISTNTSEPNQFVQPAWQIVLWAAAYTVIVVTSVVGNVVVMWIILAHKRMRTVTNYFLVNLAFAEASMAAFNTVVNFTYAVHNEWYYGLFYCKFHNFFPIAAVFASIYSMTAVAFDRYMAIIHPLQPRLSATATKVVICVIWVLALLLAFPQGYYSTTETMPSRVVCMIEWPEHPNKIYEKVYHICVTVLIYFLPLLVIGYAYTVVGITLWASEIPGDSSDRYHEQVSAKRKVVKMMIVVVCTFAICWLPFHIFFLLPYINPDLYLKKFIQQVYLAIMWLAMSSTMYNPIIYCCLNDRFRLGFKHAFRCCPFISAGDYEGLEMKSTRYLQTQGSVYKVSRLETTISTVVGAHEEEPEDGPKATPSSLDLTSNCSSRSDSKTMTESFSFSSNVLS

rat µ opioid receptor = rat µ opioid receptor (rat, UniProt P33535 1-398); assay: cell-based or functional assay
rat µ opioid receptor, sequence (P33535 whole entry): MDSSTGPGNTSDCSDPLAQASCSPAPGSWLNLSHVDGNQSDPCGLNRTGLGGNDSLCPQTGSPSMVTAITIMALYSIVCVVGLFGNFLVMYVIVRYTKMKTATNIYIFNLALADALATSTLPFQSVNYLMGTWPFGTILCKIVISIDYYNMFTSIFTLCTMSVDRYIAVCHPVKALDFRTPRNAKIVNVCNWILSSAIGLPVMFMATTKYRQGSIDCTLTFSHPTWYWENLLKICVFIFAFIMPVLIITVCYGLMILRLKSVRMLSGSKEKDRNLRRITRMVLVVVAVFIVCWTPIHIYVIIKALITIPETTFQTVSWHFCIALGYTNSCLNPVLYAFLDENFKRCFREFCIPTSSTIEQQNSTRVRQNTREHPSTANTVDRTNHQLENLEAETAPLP

| Binder | Ki (rat NK1 receptor) [nM] | GTP binding hDOR Emax (human δ opioid receptor [2]) [%] | Ki (human δ opioid receptor [3]) [nM] | Ki (human NK1 receptor) [nM] | also measured |
| --- | --- | --- | --- | --- | --- |
| Y[dA]GFPLW-OBn [TyrDAlaGlyPheProLeuTrpOBn (TY011)] | 659 |  |  |  |  |
| Y[dC]GF[dC]PLW-{NH(3,5-(CF3)2-benzyl)} (disulfide 2-5) [Tyr[DCysGlyPheDCys]ProLeuTrpNHBn(CF3)2 (TY037)] |  |  |  |  | GPI/LMMP opioid(mu) agonist IC50 [1]: 284 nM; GPI/LMMP SP antagonist Ke (guinea pig NK1 receptor): 4.7 nM |
| Y[dA]GFMPLW-OH [TyrDAlaGlyPheMetProLeuTrpOH (TY043)] | 9850 | 62 | 1.1 |  | GTP binding hDOR EC50 (human δ opioid receptor [2]): 0.51 nM; GPI/LMMP opioid(mu) agonist IC50 [1]: 272 nM |
| YAGFXPLW (Dmt at 1; D-Ala at 2; Nle at 5 (X); C-terminal NMe-3,5-Bn(CF3)2 amide) [DmtDAlaGlyPheNleProLeuTrpNMeBn(CF3)2 (TY052)] |  |  | 0.46 | 0.21 |  |
| Y[dA]GFM[Aib]LW-{OBn(CF3)2} [TyrDAlaGlyPheMetAibLeuTrpOBn(CF3)2 (TY022)] |  | 28 |  |  | GTP binding rMOR EC50 (rat µ opioid receptor): 100 nM; GTP binding rMOR Emax (rat µ opioid receptor): 32% |
| Y[dA]GFM-NH2 [TyrDAlaGlyPheMetNH2 (TY040)] | 1100 |  |  | 145 |  |
| YAGFXPLW (Dmt (2',6'-dimethyl-L-tyrosine) at 1; D-Ala at 2; Nle at 5 (X); C-terminal NH-3,5-Bn(CF3)2 amide) [DmtDAlaGlyPheNleProLeuTrpNHBn(CF3)2 (TY050)] |  |  |  | 0.075 |  |
| Y[dA]GFM[dP]LW-{OBzl(3,5-(CF3)2)} [TyrDAlaGlyPheMetDProLeuTrpOBn(CF3)2 (TY024)] |  |  | 13.2 |  | GTP binding rMOR EC50 (rat µ opioid receptor): 123 nM; GTP binding rMOR Emax (rat µ opioid receptor): 28% |
| Y[dA]GFMPLW-{NMe(benzyl)} [TyrDAlaGlyPheMetProLeuTrpNMeBn (TY026)] | 44.5 | 93 | 0.32 |  | GTP binding hDOR EC50 (human δ opioid receptor [2]): 8.9 nM |
| YAGFXPLW (Dmt at 1; D-Ala at 2; Nle at 5 (X); C-terminal NH-Bn-3-(CF3) amide) [DmtDAlaGlyPheNleProLeuTrpNHBn-3-(CF3) (TY053)] |  |  | 4.1 | 1.04 |  |
| Y[dA]GFMPLW-{NH(3,5-(CF3)2-benzyl)} [TyrDAlaGlyPheMetProLeuTrpNHBn(CF3)2 (TY027)] | 7.27 | 58 |  |  | GTP binding hDOR EC50 (human δ opioid receptor [2]): 8.6 nM; GPI/LMMP opioid(mu) agonist IC50 [1]: 488 nM |
| Y[dA]GFMALW-{OBzl(3,5-(CF3)2)} [TyrDAlaGlyPheMetAlaLeuTrpOBn(CF3)2 (TY020)] |  | 26.4 |  |  | GTP binding rMOR Emax (rat µ opioid receptor): 51.4% |
| Y[dA]GFPLW-{OBzl(3,5-(CF3)2)} [TyrDAlaGlyPheProLeuTrpOBn(CF3)2 (TY001)] |  |  |  | 0.0023 |  |
| Y[dA]GFMPLW-{NMeBn(CF3)2} [TyrDAlaGlyPheMetProLeuTrpNMeBn(CF3)2 (TY028)] | 2.01 | 59 | 2.15 |  | GTP binding hDOR EC50 (human δ opioid receptor [2]): 12.9 nM; GPI/LMMP opioid(mu) agonist IC50 [1]: 971 nM |
| Y[dA]GFPLW-{NMe(benzyl)} [TyrDAlaGlyPheProLeuTrpNMeBn (TY010)] | 267 |  |  | 100 |  |
| Y[dA]GFPLW-{NH(3,5-(CF3)2-benzyl)} [TyrDAlaGlyPheProLeuTrpNHBn(CF3)2 (TY012)] | 32.6 |  |  | 0.61 |  |
| Y[dA]GFPLW-NHBn [TyrDAlaGlyPheProLeuTrpNHBn (TY008)] | 803 |  |  | 14 |  |
| YAGFXPLW (not fully specified; Dmt at 1; D-Ala at 2; Nle at 5 (X); C-terminal NH-Bn-2,4-(OMe)2 amide) [DmtDAlaGlyPheNleProLeuTrpNHBn-2,4-(OMe)2 (TY054)] |  |  | 0.15 | 0.952 |  |
| Y[dA]GFPLW-{NMe‑Bn(CF3)2} [TyrDAlaGlyPheProLeuTrpNMeBn(CF3)2 (TY013)] | 6.05 |  |  |  |  |
| Y[dA]GFMPLW-{OBn(OMe)2} [TyrDAlaGlyPheMetProLeuTrpOBn(OMe)2 (TY030)] | 9.53 | 61 | 0.93 |  | GTP binding hDOR EC50 (human δ opioid receptor [2]): 0.8 nM; GPI/LMMP SP antagonist Ke (guinea pig NK1 receptor): 4.1 nM |
